One test concerns the target human CD122 (human) (UniProt P14784). Put plainly: cell-based or functional assay.
The next test concerns the target T1, mouse CD122 (mouse, UniProt P16297 27-240, limits assumed).
T1 sequence (looked up): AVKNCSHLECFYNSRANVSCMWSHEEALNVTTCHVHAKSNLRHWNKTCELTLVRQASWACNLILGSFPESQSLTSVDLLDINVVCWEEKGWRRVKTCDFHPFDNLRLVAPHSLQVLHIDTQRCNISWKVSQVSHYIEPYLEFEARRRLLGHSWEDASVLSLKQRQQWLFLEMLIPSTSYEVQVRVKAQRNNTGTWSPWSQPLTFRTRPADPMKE
In words: assay not specified.

Sequence of human CD122 (human) (P14784 27-551): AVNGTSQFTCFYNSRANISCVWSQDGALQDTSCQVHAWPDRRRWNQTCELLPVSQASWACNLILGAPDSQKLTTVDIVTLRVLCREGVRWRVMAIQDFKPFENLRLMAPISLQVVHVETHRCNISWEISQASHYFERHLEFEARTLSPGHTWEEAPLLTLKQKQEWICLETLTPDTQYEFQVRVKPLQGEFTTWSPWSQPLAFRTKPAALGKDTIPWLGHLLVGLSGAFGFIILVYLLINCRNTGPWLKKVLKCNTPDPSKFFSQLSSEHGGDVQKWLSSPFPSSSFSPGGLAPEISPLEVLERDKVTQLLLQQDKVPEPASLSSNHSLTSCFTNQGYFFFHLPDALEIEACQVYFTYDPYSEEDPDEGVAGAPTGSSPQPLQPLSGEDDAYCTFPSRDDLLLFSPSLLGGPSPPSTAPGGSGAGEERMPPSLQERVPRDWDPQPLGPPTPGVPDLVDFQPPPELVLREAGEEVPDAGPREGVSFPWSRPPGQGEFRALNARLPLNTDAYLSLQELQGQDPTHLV

Molecule HuMik-β1 (antibody) displayed an antibody concentration required for 50% inhibition of proliferation mediated by trans-presentation of IL-15 to TF-1β cells with human CD122 (human) of 10 µg/mL.

B1: ABC2 (antibody, mouse IgG1, V domains shown)
VH: EVKLVESGGGLVQPGGSLRLSCATSGFTFSDFYMEWVRQPPGKRLEWIAASRNKANDYTTEYSASVKGRFIVSRDTSQSILYLQMNALRAEDTAIYYCARSYYRYDGMDYWGQGTSVTVSS
VL: QVVLTQSPVIMSASPGEKVTMTCSAISSVSYMYWYQQKPGSSPRLLIYDTSNLVSGVPVRFSGSGSGTSYSLTISRMEAEDAATYYCQQWNTYPYTFGGGTKLEIK
notes: Mouse IgG1/kappa purified from hybridoma; also called mouse anti-human CD122 monoclonal antibody ABC2
With B1, in the test with mouse CD122, the binding result is listed as “no binding”.

B2: ABC101 (antibody, mouse IgG2b, V domains shown)
VH: DVQLQESGPGLVKPSQTVSLTCTVTGYSITNDNHWWNWIRQVSGSKLEWMGYIDSSGSSDNNPSLKSQISITRDTSKNQLFLQLNSVTIEDIGTYYCARGGGRDYYGMDYWGQGTSVTVSS
VL: DIVLTQSPASLAVSLGQRATISCRASQSVSTSSYSYVHWYQQKPGQPPKLLIKYASNLESGVPARFSGSGSGTDFTLNIHPVEEEDTATYYCQHSWDIPFTFGGGTKLEIK
notes: Mouse IgG2b/kappa purified from hybridoma; also called mouse anti-human CD122 monoclonal antibody ABC101
In the case of B2, the binding result in the test with mouse CD122 is reported as “no binding”.
